Earlier results, collected in US20120064039A1, “Use of Guanylyl Cyclase C Agonists to Suppress Appetite” (priority 2009, published 2012).

Molecular target: ST receptors (guanylate cyclase) (Homo sapiens, UniProt P25092)
Conditions: relative to native ST; about

ST receptors (guanylate cyclase), sequence (P25092 24-1073): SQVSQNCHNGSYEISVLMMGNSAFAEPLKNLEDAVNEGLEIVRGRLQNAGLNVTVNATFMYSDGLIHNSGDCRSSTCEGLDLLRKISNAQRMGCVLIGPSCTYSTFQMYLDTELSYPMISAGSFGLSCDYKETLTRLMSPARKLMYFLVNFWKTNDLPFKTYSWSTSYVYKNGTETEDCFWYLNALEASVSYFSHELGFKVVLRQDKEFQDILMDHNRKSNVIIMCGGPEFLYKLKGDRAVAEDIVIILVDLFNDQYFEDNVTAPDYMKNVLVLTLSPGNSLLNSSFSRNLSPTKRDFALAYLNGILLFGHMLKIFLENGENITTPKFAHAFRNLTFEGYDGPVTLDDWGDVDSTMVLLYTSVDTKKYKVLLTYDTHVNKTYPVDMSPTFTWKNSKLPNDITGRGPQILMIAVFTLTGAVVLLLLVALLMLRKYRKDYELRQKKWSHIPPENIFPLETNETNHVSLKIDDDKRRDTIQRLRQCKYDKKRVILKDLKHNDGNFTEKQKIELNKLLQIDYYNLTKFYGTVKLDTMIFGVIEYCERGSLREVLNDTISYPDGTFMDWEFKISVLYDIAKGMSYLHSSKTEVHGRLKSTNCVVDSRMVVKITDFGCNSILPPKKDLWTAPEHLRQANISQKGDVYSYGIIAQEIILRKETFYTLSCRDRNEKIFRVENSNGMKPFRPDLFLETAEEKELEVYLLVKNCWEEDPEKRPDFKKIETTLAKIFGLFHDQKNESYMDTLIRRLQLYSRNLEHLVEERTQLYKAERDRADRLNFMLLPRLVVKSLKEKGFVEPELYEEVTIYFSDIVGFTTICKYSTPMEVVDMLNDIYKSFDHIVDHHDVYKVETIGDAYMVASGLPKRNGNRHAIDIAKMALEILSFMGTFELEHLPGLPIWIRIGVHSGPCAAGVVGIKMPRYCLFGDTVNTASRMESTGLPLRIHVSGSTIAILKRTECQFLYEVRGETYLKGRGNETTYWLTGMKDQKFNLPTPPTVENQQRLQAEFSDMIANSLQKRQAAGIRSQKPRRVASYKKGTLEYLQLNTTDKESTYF

For “guanylin (PNTCEICAYAACTGC; listed as Rattus norvegicus) [native GCC ligand]”, the “activates guanylate cyclase at a level less than native ST” value is listed as 10- to 100 fold.
